Test results from PMC6706427.

Target: Flag-CLIC4-Y104A (dog)
Experiment: co-IP; lysates of co-transfected 293T cells in RIPA buffer plus 0.5% CHAPS; anti-Flag or control antibody; Protein-G Dynabeads; 4 °C overnight; 4 washes; blots quantified with the Odyssey system, three independent repeats

“mCherry-Tsg101 (from UniProt Q99816 1-390) (natural protein)” gave a percent reduction of co-precipitation against Flag-CLIC4 wild type of 40.4 % reduced.
